# Laboratory results reported in publication PMC9331050.
# Columns and labels:
# [1] = target: CreFH1, frataxin homolog from Chlamydomonas reinhardtii, mature form without the mitochondrial transit peptide (Chlamydomonas reinhardtii); assay: native gel or EMSA; 8% native PAGE of purified CreFH1 incubated 1 or 3 h with water (control) or 33 uM Fe3+, Cu2+ or Zn2+; 3 ug protein a lane; Coomassie stain, densitometry; monomer to dimer
# [2] = target: CreFH1, frataxin homolog from Chlamydomonas reinhardtii, mature form without the mitochondrial transit peptide (Chlamydomonas reinhardtii); assay: native MS; ESI-TOF MS of recombinant CreFH1 after 3 h with Cu2+, Fe3+, Zn2+ or water; carrier 5:95 acetonitrile:ammonium acetate/ammonia 15 mM, pH 7.0; monomer to dimer
substance,measurement,setting,value
"CreFH1, frataxin homolog from Chlamydomonas reinhardtii, mature form without the mitochondrial transit peptide (natural protein)","percent of protein as dimer, with Zn2+ or Fe3+",[1],22%
same,"percent of total protein as dimer, with Cu2+",[1],40%
same,stoichiometry N,[1],2
same,stoichiometry N,[2],2
